Source: patent US20230279123A1

Key:
[1] = biological target: IL-4Rα (on TF-1 cells) (UniProt P24394); assay: cell-based or functional assay
[2] = biological target: IL-4Rα (receptor protein / antigen) (UniProt P24394); assay: competition ELISA: IL-4Rα coated, biotin-IL-4 at EC80 mixed with antibody dilutions, OD450; hIgG is the control, the fitted value may be meaningless

EC50 of neutralizing IL-4-induced TF-1 cell proliferation [1]	EC50 of neutralizing IL-13-induced TF-1 cell proliferation [1]	EC50 [2]	Substance
0.13 nM	0.178 nM	–	dupilumab (antibody)
–	–	2.04 nM	hIgG (antibody)
